Source: the supplement of paper PMC12855868

B1: library; numbered along this chain (parent)
chain: MAAAGGARLLRAASAVLGGPAGRWLHHAGSRAGSSGLLRNRGPGGSAEASRSLSVSARARSSSEDKITVHFINRDGETLTTKGKVGDSLLDVVVENNLDIDGFGACEGTLACSTCHLIFEDHIYEKLDAITDEENDMLDLAYGLTDRSRLGCQICLTKSMDNMTVRVPETVADARQSIDVGKTS

Variants of: B1
Test: scaled log2 fold change in cell abundance, elesclomol vs control (0 = silent mean, 1 = nonsense mean) (scaled log2 ratio); higher = higher viability under elesclomol (loss of FDX1 cuproptosis function)
Details: glucose 10 mM
[1] = with ABC1 FDX1 KO, elesclomol 5 nM, 14 days
[2] = with HEK293T FDX1 KO, elesclomol 40 nM, 11 days
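Note: variant abundance is its share of total variant reads in each endpoint sample, from next-generation sequencing of the integrated ORF PCR-amplified out of genomic DNA.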

Variant	scaled log2 fold change [1]	scaled log2 fold change [2]
G151H	1.27	1.31
G151S	0.0704	-0.359
G151T	0.645	0.96
G151F	1.04	1.32
G151D	1.22	1.19
G151L	1	0.743
G151A	0.241	0.25
G151P	1.03	1.12
G151Q	1.11	1.05
G151K	1.04	0.728
G151E	1.06	1.01
G151C	0.338	-0.416
G151I	1.07	0.797
G151V	0.707	-0.147
G151R	1.11	0.946
G151M	1.01	1.15
G151W	1.06	1.38
G151Y	1.15	1.08
G151N	1.12	1.08
L150E	0.981	1.27
L150H	0.563	-0.201
L150S	0.479	0.331
L150W	1.06	1.11
L150N	0.899	0.249

Variant	scaled log2 fold change [1]	scaled log2 fold change [2]
L150A	0.335	0.397
L150F	0.244	-0.211
L150Q	0.537	0.364
L150G	0.757	0.513
L150K	1.24	1.51
L150V	0.447	-0.147
L150C	-0.0973	0.196
L150T	0.595	-0.16
L150Y	0.721	0.392
L150P	1.09	0.82
L150I	0.2	-0.337
L150R	1.05	0.41
L150M	-0.0616	-0.103
L150D	1.09	0.982
C152T	1.06	1.22
C152A	1.22	1.33
C152E	1.03	1.1
C152I	1.12	1.09
C152M	1.16	0.861
C152F	1.1	2.08
C152K	1.05	0.942
C152L	1.14	1.41
C152S	1.17	1.18
C152D	1.1	1.19

Variant	scaled log2 fold change [1]	scaled log2 fold change [2]
C152P	1.08	1.13
C152N	1	2.21
C152Q	1.01	1.18
C152H	1.12	0.972
C152V	1.23	1.12
C152W	1.13	1.28
C152G	1.06	1.28
C152Y	1.15	1.64
C152R	1.08	1.5
R149E	1.13	1.11
R149P	1.05	0.985
R149N	1	1.05
R149D	1.08	0.943
R149I	0.876	0.53
R149C	0.906	1.99
R149T	1.01	0.998
R149M	0.689	0.499
R149Y	0.871	0.839
R149Q	0.899	1.02
R149K	0.66	-0.00324
R149V	0.231	0.529
R149F	0.872	1.08
R149S	0.96	0.508
R149W	1.07	1.1

Variant	scaled log2 fold change [1]	scaled log2 fold change [2]
R149H	0.625	0.597
R149L	0.679	0.937
R149G	0.658	0.436
R149A	0.375	0.982
S148K	0.496	-0.0219
S148N	0.122	0.397
S148W	0.632	0.172
S148P	0.532	0.268
S148R	0.331	0.333
S148L	0.386	0.434
S148Y	0.363	-0.279
S148M	0.0932	0.216
S148T	0.485	0.124
S148Q	0.313	0.39
S148V	0.0179	0.35
S148I	0.277	1.81
Q153P	0.884	0.923
Q153S	0.243	0.372
Q153G	0.48	-0.652
Q153H	0.41	-0.0151
Q153C	-0.163	-0.668
Q153A	0.0247	-0.209
Q153D	0.674	0.615
Q153V	-0.0289	0.299

Variant	scaled log2 fold change [1]	scaled log2 fold change [2]
Q153N	-0.0628	0.314
Q153F	0.595	0.361
Q153L	0.241	-0.00657
Q153K	0.016	0.139
Q153E	0.283	1.2
Q153I	0.0471	-0.458
Q153R	-0.0672	1.14
Q153M	-0.153	-0.595
Q153T	0.212	-0.179
Q153W	0.543	0.414
Q153Y	0.621	0.0427
I154C	-0.101	0.0571
I154K	0.995	0.727
I154L	0.117	0.0996
I154H	0.392	0.163
I154E	1.05	0.819
I154D	1.18	1.22
I154F	0.839	0.781
I154A	0.161	0.851
I154G	1.1	1.27
